Here are results for one molecule from article doi:10.1101/2024.06.27.601040 (bioRxiv, 2024).

The experiment has as its target MVP3-5 (residues 102-274 of human MVP), wild type (human, UniProt Q14764 102-274). As to the kind of experiment: SEC. A general note: Size exclusion chromatography separates by hydrodynamic size, large species first.

MVP3-5 (residues 102-274 of human MVP), wild type, sequence (Q14764 102-274): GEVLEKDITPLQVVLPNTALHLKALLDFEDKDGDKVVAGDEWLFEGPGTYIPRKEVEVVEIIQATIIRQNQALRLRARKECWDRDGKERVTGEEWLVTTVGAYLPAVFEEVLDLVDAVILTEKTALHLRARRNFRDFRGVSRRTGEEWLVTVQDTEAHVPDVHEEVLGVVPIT

B1: MINT domain (residues 1562-1724 of human PARP4), wild type (domain or fragment)
chain: VCIQHWQDAVPWTELLSLQTEDGFWKLTPELGLILNLNTNGLHSFLKQKGIQSLGVKGRECLLDLIATMLVLQFIRTRLEKEGIVFKSLMKMDDASISRNIPWAFEAIKQASEWVRRTEGQYPSICPRLELGNDWDSATKQLLGLQPISTVSPLHRVLHYSQG
Turning to B1, the binding result is reported as “binds”.
